From patent US20210324099A1 (Chugai, published 2021) come the findings set out here.

Residue numbers refer to the chain shown, from its start.

To fix the notation:
T1: hFcgRIIaH (human, UniProt P12318 34-217)
T1 construct: extracellular domain; also called human FcγRIIa type H (H131)
T1 sequence (looked up): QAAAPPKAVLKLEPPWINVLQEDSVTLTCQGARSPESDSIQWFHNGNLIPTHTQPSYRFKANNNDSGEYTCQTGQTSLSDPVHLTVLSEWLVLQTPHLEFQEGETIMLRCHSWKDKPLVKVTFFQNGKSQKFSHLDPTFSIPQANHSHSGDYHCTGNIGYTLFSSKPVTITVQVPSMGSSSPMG

T2: hFcgRIIaR (human, UniProt P12318 34-217)
T2 construct: extracellular domain; also called human FcγRIIa type R (R131)
T2 sequence (looked up): T1 sequence (looked up) with H134R

T3: hFcgRIIb (human, UniProt P31994 43-217)
T3 construct: extracellular domain; also called human FcγRIIb
T3 sequence (looked up): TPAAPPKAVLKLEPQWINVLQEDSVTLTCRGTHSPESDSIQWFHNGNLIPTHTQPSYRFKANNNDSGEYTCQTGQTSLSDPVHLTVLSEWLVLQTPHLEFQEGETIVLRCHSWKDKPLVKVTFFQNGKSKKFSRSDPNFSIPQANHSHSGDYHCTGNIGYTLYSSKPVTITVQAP

B1: A375-SCF057a/B167-Lamlib (antibody, human IgG1, lambda)
heavy: EVQLVESGGGLVKPGGSLRLSCAASGFTFSTFTMNWVRQAPGKGLEWVSSISSKSTYIEYADSFKVRFTISRDNAKNSLYLQMNSLRAEDTAVYYCARYGAKNFLNWVFDYWGQGTLVTVSSASTKGPSVFPLAPSSKSTSGGTAALGCLVKDYFPEPVTVSWNSGALTSGVHTFPAVLQSSGLYSLSSVVTVPSSSLGTQTYICNVNHKPSNTKVDKRVEPKSCDKTHTCPPCPAPELLNGPSVFLFPPKPKDTLMISRTPEVTCVVVDVSDEDPEVKFNWYVDGVEVHNAKTKPREEQYNSTYRVVSVLTVLHRDWLNGKEYKCKVSNKALPKPIEKTISKAKGQRREPQVYTLPPSREEMTKNQVSLTCLVKGFYPSDIAVEWESNGQPENNYKTTPPVLDSDGSFFLYSKLTVDKSRWQQGNVFSCSVMHEALHNHYTQKSLSLSP
light: QSALTQPPSASGSPGQTVTISCTGTRYDVGYYEYVSWYQQHPGKAPKLMIYETSKRLSGVPDRFSGSKSGNTASLTVSGLQAEDEADYYCSSYRYEHQVSFGGGTKLTVLGQPKAAPSVTLFPPSSEELQANKATLVCLISDFYPGAVTVAWKADSSPVKAGVETTTPSKQSNNKYAASSYLSLTPEQWKSHRSYSCQVTHEGSTVEKTVAPTECS
B2: A375-TT16/B167-Lamlib (antibody, human IgG1, lambda)
heavy: B1 heavy with R219K, L239Y, N241G, G242D, P243D, T255V, D273H, T312P, R316Q, R348P
light: B1 light
notes: copies: 2 + 2
B3: A375-SCF057aPh/B167-Lamlib (antibody, human IgG1, lambda)
heavy: B1 heavy with L240W
light: B1 light
B4: A375-TT14/B167-Lamlib (antibody, human IgG1, lambda)
heavy: B1 heavy with R219K, L239Y, N241G, P243D, T255V, V269I, D273H, T312P, R316Q, R348P
light: B1 light
notes: copies: 2 + 2
B5: A375-SCF060a/B167-Lamlib (antibody, human IgG1, lambda)
heavy: B1 heavy with L240W, Q300L, K331T, R348P
light: B1 light
notes: copies: 2 + 2
B6: A375-SCF059a/B167-Lamlib (antibody, human IgG1, lambda)
heavy: B1 heavy with R348P, D418K
light: B1 light
notes: copies: 2 + 2
B7: A375-SCF059aPh/B167-Lamlib (antibody, human IgG1, lambda)
heavy: B1 heavy with L240W, R348P, D418K
light: B1 light
notes: copies: 2 + 2
B8: dBBK051-P253 (antibody, human IgG1, kappa, V domains shown)
VH: QVQLVQSGAEVKKPGSSVKVSCKASGGGFSSYGISWVRQAPGQGLEWMGALFPISSQASYAQKFQGRVTITADESTSTAYMELSSLRSEDTAVYYCARDRPVDYVPHGAFDIWGQGTLVTVSS
VL: DIVMTQSPLSLPVTPGEPASISCRSSQSLVSPGDNTFLSWYLQKPGQSPQLLIYEIERRFYGVPDRFSGSGSGTDFTLKISRVEAEDVGVYYCMQASTFPRTFGQGTKVEIKR

Broadly, the Kd is the equilibrium constant for the complex coming apart. Read a low Kd as higher affinity.
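For binding per 1RU of antibody in this document: biacore SPR with antibody captured on an anti-human Fab lambda chip, human FcγR injected at 1000 nM (FcγRIa at 8 nM) in pH 7.4 phosphate buffer.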

human FcRn, sequence (P55899 24-290 limits assumed, chain 1 of 2): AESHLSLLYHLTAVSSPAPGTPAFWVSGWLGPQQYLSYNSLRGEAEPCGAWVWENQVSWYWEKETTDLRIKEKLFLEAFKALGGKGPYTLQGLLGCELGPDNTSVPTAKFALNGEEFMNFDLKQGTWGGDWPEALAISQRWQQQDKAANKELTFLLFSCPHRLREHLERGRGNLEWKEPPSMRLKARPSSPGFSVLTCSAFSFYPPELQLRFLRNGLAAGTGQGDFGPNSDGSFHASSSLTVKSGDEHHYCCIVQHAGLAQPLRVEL
human FcRn, sequence (P61769 21-119 limits assumed, chain 2 of 2): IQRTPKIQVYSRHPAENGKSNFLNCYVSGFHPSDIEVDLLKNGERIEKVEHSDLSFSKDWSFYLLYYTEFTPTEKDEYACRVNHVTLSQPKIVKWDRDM
T6 sequence (P12314 16-292): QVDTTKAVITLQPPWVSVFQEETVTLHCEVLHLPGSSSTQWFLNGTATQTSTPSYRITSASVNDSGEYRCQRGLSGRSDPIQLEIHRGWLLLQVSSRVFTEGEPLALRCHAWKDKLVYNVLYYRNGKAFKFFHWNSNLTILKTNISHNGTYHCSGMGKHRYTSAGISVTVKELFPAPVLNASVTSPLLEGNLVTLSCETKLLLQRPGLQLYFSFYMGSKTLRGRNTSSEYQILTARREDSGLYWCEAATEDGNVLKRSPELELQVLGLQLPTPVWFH
T4 sequence (chain, as listed by the source limits assumed): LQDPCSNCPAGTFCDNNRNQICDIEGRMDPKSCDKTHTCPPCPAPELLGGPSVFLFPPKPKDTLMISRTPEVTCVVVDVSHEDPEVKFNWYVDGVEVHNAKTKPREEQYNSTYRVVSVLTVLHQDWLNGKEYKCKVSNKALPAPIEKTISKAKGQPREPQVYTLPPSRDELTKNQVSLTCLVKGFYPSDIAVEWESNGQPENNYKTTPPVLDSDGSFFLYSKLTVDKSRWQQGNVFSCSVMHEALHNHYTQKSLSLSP

The first experiment has as its target human FcRn (human, UniProt P55899 24-290; P61769 21-119, limits assumed). Kind of experiment: SPR 25C pH 6.0, steady state.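 Also: antibody captured on chip via anti-human Fab-lambda ligand, human FcRn injected as analyte in 50 mM phosphate buffer with 150 mM NaCl and P20.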
Molecule B1 showed a Kd of 928 nM.

Turning to B2, the equilibrium dissociation constant (Kd) amounted to 1510 nM.

With B3, binding was put at a Kd of 909 nM.

In turn, B4 displayed a dissociation constant Kd of 1770 nM.

Molecule B5 displayed a dissociation constant (Kd) of 1010 nM.

Take B6: the Kd came out at 1030 nM.

B7 displayed a dissociation constant Kd of 1050 nM.

A further experiment has as its target T4, hCD137.1-F-G1d (human).
T4 construct: Portion of the human CD137 extracellular region linked to an antibody constant region
Kind of experiment: ELISA; 500 uM kynurenine, Ab 10 ug/mL.
Experimental: (§1) Whether the obtained antibodies bind to antigens having a partial sequence of CD137 was assessed by ELISA. […] After the unbound antigens were removed from the plates by washing each well of the plates with the Wash Buffer, the wells were blocked with 50 μL of Blocking Buffer (BlockAce-containing TBS) for one hour or more. To wells from which the Blocking Buffer was removed, each well was supplemented with 10 μL of the purified antibodies prepared at 10 μg/mL in TBS with a final concentration of 500 μM L-kynurenine or TBS with a final concentration of 500 μM kynurenine, and it was left at rest for one hour. AP-conjugated anti-human Kappa antibodies (BIOSOURCE) diluted in TBS with a final concentration of 500 μM kynurenine were added to each well after washing with the Wash Buffer containing a final concentration of 500 μM kynurenine (TBS with 0.1% Tween20). After one hour of incubation, the BluePhos phosphate substrate (KPL) was added after washing with Wash Buffer containing 500 μM kynurenine. Color development of the solution in each well was measured by absorbance at 620 nm after the color development reaction of the solution in each well was stopped by adding the BluePhos Stop Solution. The ratio of absorbance by setting the value of the well with an antibody concentration of 0 μg/mL to 1 is shown.
B8: the absorbance ratio was found to be 1.2.

In a further experiment the target is T5, hCD137.1.2-F.G1d (human).
T5 construct: Portion of the human CD137 extracellular region linked to an antibody constant region
T5 sequence (chain, as listed by the source limits assumed): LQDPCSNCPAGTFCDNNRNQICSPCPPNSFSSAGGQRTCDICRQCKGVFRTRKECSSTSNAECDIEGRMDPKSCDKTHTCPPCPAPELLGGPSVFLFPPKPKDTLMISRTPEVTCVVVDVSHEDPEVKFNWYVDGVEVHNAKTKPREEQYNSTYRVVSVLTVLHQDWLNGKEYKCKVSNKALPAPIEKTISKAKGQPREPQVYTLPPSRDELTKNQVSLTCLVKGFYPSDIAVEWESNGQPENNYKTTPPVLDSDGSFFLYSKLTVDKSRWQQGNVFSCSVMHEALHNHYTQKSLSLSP
Nature of the experiment: ELISA; 500 uM kynurenine, Ab 10 ug/mL.
Experimental: as §1
For the molecule B8, the absorbance ratio is 1.2.

In the next experiment the target is T1, hFcgRIIaH. Kind of experiment: SPR 25C; relative to A375-G1T3/B167-Lamlib.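 Also: SPR with antibody captured on an anti-human Fab-lambda chip, human FcγR analyte at 8 nM for FcγRIa or 1000 nM for the others, pH 7.4, FcγR RU per captured antibody unit.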
Experimental: (§2) Biacore T200 (GE Healthcare) was used to evaluate the binding activity to the respective human Fcγ receptor (hereafter referred to as FcγR). Measurement was performed at 25° C. using 50 mM phosphate, 150 mM NaCl, 0.05 w/v %-P20, pH 7.4 as buffer. About 1000 RU of antibody was captured using a sensor chip immobilized with CaptureSelect™ Human Fab-lambda Kinetics Biotin Conjugate (Thermo Fisher Scientific) as a molecule for ligand capturing. Human FcγR was diluted to 8 nM for FcγRIa and 1000 nM for other FcγR in the measurement buffer, and it was interacted to the captured antibody. The binding activity of each antibody to FcγR was assessed by calculating the binding amount of FcγR (RU) per unit amount of antibody using Biacore T200 Evaluation Software 2.0.
B1 had a relative binding amount of 0.93.

In turn, B2 displayed a relative binding amount of 0.22.

Molecule B3 showed a relative binding amount of 0.64.

Turning to B4, the relative binding amount was determined as 0.07.

For B5, the relative binding amount was found to be 0.82.

Consider B6, for which the relative binding amount amounted to 0.88.

Regarding B7, the relative binding amount came out at 0.59.

Another experiment has as its target T6, hFcgRIa (human, UniProt P12314 16-292).
T6 construct: extracellular domain; also called human FcγRIa; FcγRI
Nature of the experiment: SPR 25C; relative to A375-G1T3/B167-Lamlib.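 Also: SPR with antibody captured on an anti-human Fab-lambda chip, human FcγR analyte at 8 nM for FcγRIa or 1000 nM for the others, pH 7.4, FcγR RU per captured antibody unit.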
Experimental: as §2
Consider B1, for which the relative binding amount worked out at 0.5.

As to B2, the relative binding amount was 0.04.

Molecule B3 had a relative binding amount of 0.03.

For B4, the relative binding amount is 0.05.

As to B5, the relative binding amount is 0.03.

B6 came in with a relative binding amount of 0.47.

The molecule B7 gave a relative binding amount of 0.11.

For another experiment, the target named is T2, hFcgRIIaR. Nature of the experiment: SPR 25C; relative to A375-G1T3/B167-Lamlib.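 Also: SPR with antibody captured on an anti-human Fab-lambda chip, human FcγR analyte at 8 nM for FcγRIa or 1000 nM for the others, pH 7.4, FcγR RU per captured antibody unit.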
Experimental: as §2
Take B1: the relative binding amount amounted to 0.79.

Turning to B2, the relative binding amount was determined as 0.77.

Consider B3, for which the relative binding amount amounted to 0.79.

Consider B4, for which the relative binding amount amounted to 0.14.

The molecule B5 displayed a relative binding amount of 0.99.

B6 displayed a relative binding amount of 0.69.

B7 yielded a relative binding amount of 0.69.

Another experiment deals with T7, hFcgRIIIaV (human, UniProt P08637 17-208).
T7 construct: extracellular domain; also called human FcγRIIIa allotype V158
T7 sequence (P08637 17-208 F176V): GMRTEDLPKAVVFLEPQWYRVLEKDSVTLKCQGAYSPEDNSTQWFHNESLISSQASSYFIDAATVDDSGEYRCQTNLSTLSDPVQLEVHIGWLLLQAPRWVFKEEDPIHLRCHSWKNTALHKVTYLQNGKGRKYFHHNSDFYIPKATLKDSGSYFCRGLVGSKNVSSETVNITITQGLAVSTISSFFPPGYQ
Kind of experiment: SPR 25C; relative to A375-G1T3/B167-Lamlib.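 Also: SPR with antibody captured on an anti-human Fab-lambda chip, human FcγR analyte at 8 nM for FcγRIa or 1000 nM for the others, pH 7.4, FcγR RU per captured antibody unit.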
Experimental: as §2
Molecule B1 registered a relative binding amount of 0.04.

For B2, the relative binding amount was 0.

In turn, B3 had a relative binding amount of 0.01.

B4 came in with a relative binding amount of 0.

In the case of B5, the relative binding amount turned out to be 0.01.

Consider B6, for which the relative binding amount was found to be 0.03.

Take B7: the relative binding amount turned out to be 0.04.

The target of another experiment is T8, hFcgRIIIaF (human, UniProt P08637 17-208).
T8 construct: extracellular domain; also called human FcγRIIIa allotype F158
T8 sequence (P08637 17-208): as the sequence (P08637 17-208 F176V) above, with V160F counted along it
Nature of the experiment: SPR 25C; relative to A375-G1T3/B167-Lamlib.
Experimental: as §2
For the molecule B1, the relative binding amount was 0.06.

As to B2, the relative binding amount came out at 0.

For B3, the relative binding amount was -0.02.

Take B4: the relative binding amount came to 0.

B5: the relative binding amount stood at 0.05.

Molecule B6 returned a relative binding amount of 0.05.

On to B7, for which the relative binding amount is 0.01.

The target of another experiment is T3, hFcgRIIb. Nature of the experiment: SPR 25C; relative to A375-G1T3/B167-Lamlib.
Experimental: as §2
Take B1: the relative binding amount is 3.76.

B2 came in with a relative binding amount of 9.94.

Turning to B3, the relative binding amount worked out at 3.15.

B4 returned a relative binding amount of 7.34.

The molecule B5 showed a relative binding amount of 4.31.

B6 showed a relative binding amount of 3.27.

B7 returned a relative binding amount of 2.66.

A further experiment addresses T1, hFcgRIIaH. Nature of the experiment: SPR 25C.
As for B1, the “binding per 1RU of antibody” value came to 0.0525 RU.

B2: the “binding per 1RU of antibody” value amounted to 0.0126 RU.

As to B3, the “binding per 1RU of antibody” value came out at 0.0365 RU.

As to B4, the “binding per 1RU of antibody” value turned out to be 0.0042 RU.

Turning to B5, the “binding per 1RU of antibody” value was 0.0463 RU.

Turning to B6, the “binding per 1RU of antibody” value stood at 0.0502 RU.

As to B7, the “binding per 1RU of antibody” value turned out to be 0.0332 RU.

Another experiment has as its target T6, hFcgRIa. Kind of experiment: SPR 25C.
Take B1: the “binding per 1RU of antibody” value came out at 0.0405 RU.

With B2, the “binding per 1RU of antibody” value worked out at 0.0034 RU.

On to B3, for which the “binding per 1RU of antibody” value was found to be 0.0021 RU.

As to B4, the “binding per 1RU of antibody” value turned out to be 0.0045 RU.

Turning to B5, the “binding per 1RU of antibody” value worked out at 0.0021 RU.

In the case of B6, the “binding per 1RU of antibody” value is 0.038 RU.

As to B7, the “binding per 1RU of antibody” value is 0.0089 RU.

Another experiment concerns the target T2, hFcgRIIaR. Nature of the experiment: SPR 25C.
Consider B1, for which the “binding per 1RU of antibody” value amounted to 0.0367 RU.

For B2, the “binding per 1RU of antibody” value was found to be 0.0359 RU.

B3: the “binding per 1RU of antibody” value was 0.0364 RU.

On to B4, for which the “binding per 1RU of antibody” value worked out at 0.0067 RU.

With B5, the “binding per 1RU of antibody” value is 0.0459 RU.

Regarding B6, the “binding per 1RU of antibody” value worked out at 0.0319 RU.

Consider B7, for which the “binding per 1RU of antibody” value was 0.0319 RU.

A further experiment has as its target T7, hFcgRIIIaV. Kind of experiment: SPR 25C.
On to B1, for which the “binding per 1RU of antibody” value was 0.0025 RU.

Consider B2, for which the “binding per 1RU of antibody” value was -0.0002 RU.

B3: the “binding per 1RU of antibody” value was found to be 0.0005 RU.

As for B4, the “binding per 1RU of antibody” value is 0.0003 RU.

Regarding B5, the “binding per 1RU of antibody” value came out at 0.0008 RU.

Take B6: the “binding per 1RU of antibody” value was 0.0021 RU.

For the molecule B7, the “binding per 1RU of antibody” value amounted to 0.0028 RU.

The target in another experiment is T8, hFcgRIIIaF. Nature of the experiment: SPR 25C.
Turning to B1, the “binding per 1RU of antibody” value came out at 0.0013 RU.

Turning to B2, the “binding per 1RU of antibody” value was determined as 0.0001 RU.

With B3, the “binding per 1RU of antibody” value was -0.0003 RU.

As for B4, the “binding per 1RU of antibody” value was found to be 0 RU.

Take B5: the “binding per 1RU of antibody” value is 0.0011 RU.

Regarding B6, the “binding per 1RU of antibody” value worked out at 0.001 RU.

B7: the “binding per 1RU of antibody” value came out at 0.0003 RU.

The target in a further experiment is T3, hFcgRIIb. Nature of the experiment: SPR 25C.
For the molecule B1, the “binding per 1RU of antibody” value came out at 0.0412 RU.

For the molecule B2, the “binding per 1RU of antibody” value was 0.109 RU.

Turning to B3, the “binding per 1RU of antibody” value stood at 0.0345 RU.

Consider B4, for which the “binding per 1RU of antibody” value stood at 0.0805 RU.

As for B5, the “binding per 1RU of antibody” value was 0.0472 RU.

Regarding B6, the “binding per 1RU of antibody” value stood at 0.0358 RU.

For the molecule B7, the “binding per 1RU of antibody” value stood at 0.0291 RU.
